The target of this experiment is T1, LGR4 (HA-LGR4) over-expressed on HEK293 cells (UniProt Q9BXB1 25-951).
T1 construct: Plasmid and cell line described in earlier work; also called HEK293-LGR4; full-length LGR4; source: HEK293 cells over-expressing the receptor (HEK293-LGR4), on cells
The experiment is described as follows: whole-cell binding, fluorescence plate reader; His-tagged ligand in 3x serial dilution on cells in 96-well plates, on ice 1 h, washed, fixed with 4.2% paraformaldehyde, Alexa488-labeled anti-His antibody; half-maximum binding (KD) from a three-parameter dose-response fit. As to conditions: one partner purified.

B1: R2FuTSP-His (RSPO2 furin domain with TSP domain, His-tagged) (domain or fragment, UniProt Q6UXX9 22-205, looked up)
chain: QGNRWRRSKRASYVSNPICKGCLSCSKDNGCSRCQQKLFFFLRREGMRQYGECLHSCPSGYYGHRAPDMNRCARCRIENCDSCFSKDFCTKCKVGFYLHRGRCFDECPDGFAPLEETMECVEGCEVGHWSEWGTCSRNNRTCGFKWGLETRTRQIVKKPVKDTILCPTIAESRRCKMTMRHCPG
notes: R-spondin 2 (RSPO2), furin domain with the thrombospondin-like (TSP) domain; source: bought: R&D Systems
Regarding B1, the Kd came to 2.2 ± 0.3 nM.

What is called Kd is a measure of binding affinity in units of concentration. A low value points to a tighter complex.

For the origin of these results see paper PMC10319729 (Scientific Reports, 2023).
